Values quoted from earlier work in publication PMC5319824.
Values joined by “and” are separate entries in the source; they are usually repeats but may differ in a detail not shown here. Equal entries are not always repeated. Where two headings read alike, the source gives them in different places.

What was measured:
FtsZ (Escherichia coli) [1] = molecular target: FtsZ (Escherichia coli) (UniProt P0A9A6)
FtsZ (Escherichia coli) [2] = molecular target: FtsZ (Escherichia coli) (UniProt P0A9A6); remark: listed apart in the source
FtsZ (Escherichia coli) [3] = molecular target: FtsZ (Escherichia coli) (UniProt P0A9A6); remark: listed apart in the source

FtsZ (Escherichia coli), sequence (P0A9A6 whole entry): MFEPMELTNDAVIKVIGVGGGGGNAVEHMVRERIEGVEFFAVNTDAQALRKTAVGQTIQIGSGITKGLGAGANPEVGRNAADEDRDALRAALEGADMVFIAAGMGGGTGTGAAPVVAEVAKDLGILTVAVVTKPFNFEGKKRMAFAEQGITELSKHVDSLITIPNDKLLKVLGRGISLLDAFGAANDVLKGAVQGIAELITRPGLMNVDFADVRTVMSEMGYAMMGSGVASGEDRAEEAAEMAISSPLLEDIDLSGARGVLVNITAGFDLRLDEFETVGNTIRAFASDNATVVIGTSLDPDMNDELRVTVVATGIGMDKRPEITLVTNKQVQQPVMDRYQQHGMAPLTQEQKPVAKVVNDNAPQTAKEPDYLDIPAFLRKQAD
FtsA, sequence (P0ABH0 whole entry): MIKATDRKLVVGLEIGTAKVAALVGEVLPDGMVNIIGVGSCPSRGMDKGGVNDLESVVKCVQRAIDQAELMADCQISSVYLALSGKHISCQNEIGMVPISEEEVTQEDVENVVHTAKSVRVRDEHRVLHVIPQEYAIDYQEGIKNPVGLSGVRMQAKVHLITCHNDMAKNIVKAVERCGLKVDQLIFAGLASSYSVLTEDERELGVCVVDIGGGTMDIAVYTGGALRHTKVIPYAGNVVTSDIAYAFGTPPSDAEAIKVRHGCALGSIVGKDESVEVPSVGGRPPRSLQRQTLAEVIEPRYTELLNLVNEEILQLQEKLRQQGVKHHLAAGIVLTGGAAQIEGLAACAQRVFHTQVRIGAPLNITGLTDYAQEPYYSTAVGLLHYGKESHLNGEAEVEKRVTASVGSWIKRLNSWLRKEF

Kd (FtsZ (Escherichia coli) [1]) [µM]	Substance	Kd (FtsZ (Escherichia coli) [2]) [µM]	Kd (FtsZ (Escherichia coli) [3])
> 40	FtsA (from UniProt P0ABH0)		
	ZipA (from UniProt P77173)	0.4	30 µM and 140 µM
